{
  "source": "the nanobody polyreactivity screen of Harvey et al. (2022)",
  "data": [
    {"experiment": "yeast display, Sf9 membrane polyspecificity reagent, FACS + sequencing; frameworks hold sequencing errors", "outline": "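After 36–48 hours of galactose induction, yeast (Saccharomyces cerevisiae BJ5465) displaying a synthetic nanobody library were stained at 4 °C for 1 hour with 10% biotinylated, detergent-solubilized Sf9 membrane reagent. Streptavidin microbeads enriched the stained cells before FACS sorting into low and high (top ~1%) gates on anti-HA and streptavidin fluorescence. Each clone's polyreactivity label reflects its gate of origin.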", "values": [
      {"sequence": "QVQLVESGGGLVQAGGSLRLSCAASGFIFYAYAMGWYRQAPGKERELVAAISYSGGSTYYADSVKGRFTISRDNAKNTVYLQMNSLKPEDTAVYYCNTVSYGYSSKLYDYWGQGTLVTVSS", "polyreactivity (PSR sort gate)": "high polyreactivity"},
      {"sequence": "QVQLVESGGGLVQAGGSLRLSCAASGFIFYAYTMGWYRQAPGKERELVAAISRSGGRTYYADSVKGRFTISRDNAKNTVYLQMNSLKPEDTAVYYCAAEYRGVPRVVVDYDYWGQGTQVTVSS", "polyreactivity (PSR sort gate)": "high polyreactivity"},
      {"sequence": "QVQLVESGGGLVQAGGSLRLSCAASGFIFYDNAMGWYRQAPGKERELVAAIDWSGDSTYYADSVKGRFTISRDNAKNTVYLQMNSLKPEDTAVYYCAADSQDPGDYYLFDYWGQGTQVTVSS", "polyreactivity (PSR sort gate)": "low polyreactivity"},
      {"sequence": "QVQLVESGGGLVQAGGSLRLSCAASGFIFYDYAMGWYRQAPGKERELVAAIRSSDGGTYYADSEKGPFTISRDNAKNTVYLQMNSLKPEDTAVDYCAAEIRWGWHPYYDYDEYWGQGTLVTVSS", "polyreactivity (PSR sort gate)": "low polyreactivity"},
      {"sequence": "QVQLVESGGGLVQAGGSLRLSCAASGFIFYDYDMGWYRQAPGKEREFVAAITYSGGSTYYADSVKGRFTISRDNAKNTVYLQMNCLKPEDTAFYYCADVKSRYAEAVDYFYWGQGTHVTVSS", "polyreactivity (PSR sort gate)": "low polyreactivity"},
      {"sequence": "QVQLVESGGGLVQAGGSLRLSCAASGFIFYHYAMGWYRQAPGKERELVAAISGRGGSTYYADSVKGRFTISRDNAKNTVYLQMNSLKPEDTAVYYCATDYSRTFDYWGQGTQVTVSS", "polyreactivity (PSR sort gate)": "high polyreactivity"},
      {"sequence": "QVQLVESGGGLVQAGGSLRLSCAASGFIFYKNAMGWYRQAPGKERQLVAAINFSTGRTYYADSVKGRFTISRDNAKNTVYLQMNSLKPEDTAVYYCASKSANPRKYYYWGQGTQVTVSS", "polyreactivity (PSR sort gate)": "high polyreactivity"},
      {"sequence": "QVQLVESGGGLVQAGGSLRLSCAASGFIFYKYAMGWYRQAPGKERELVAAISKRGGSTYYADSVKGRFTISRDNAKNTVYLQMNSLKPEDNAVYYCATVGGNSGTVRYFASDYWGQGTKVTVSS", "polyreactivity (PSR sort gate)": "high polyreactivity"},
      {"sequence": "QVQLVESGGGLVQAGGSLRLSCAASGFIFYKYAMGWYRQAPGKERELVAAISRGGTTTYADSVKGRFTISRDNAKNTVYLQMNSLKPEDTAVYYCNKYFRYRYDYWGQGTQVTVSS", "polyreactivity (PSR sort gate)": "high polyreactivity"},
      {"sequence": "QVQLVESGGGLVQAGGSLRLSCAASGFIFYKYAMGWYRQAPGKERELVAAITRRGGSTYYADSVKGRFTISRDNAKNTVYLQMNSLKPEDTAVYYCAKYIYGYKDSPLGDDYWGQGTQVTVSS", "polyreactivity (PSR sort gate)": "high polyreactivity"},
      {"sequence": "QVQLVESGGGLVQAGGSLRLSCAASGFIFYKYAMGWYRQAPRKEREFVASISGSGGRTYYADSVKGRFTISRDNAKNTVYLQMNSLKPEDTAVYYCAVDLLRRGFPTVVTTYDYWGQGTQVTVSS", "polyreactivity (PSR sort gate)": "high polyreactivity"},
      {"sequence": "QVQLVESGGGLVQAGGSLRLSCAASGFIFYLYAMGWYRQAPGKEMELVAAISWGGGTTYYADSVKGRFTISRDNAKNTVYLKMNSLKPEDTAVYYCAAETEYYSYRFDYWGQGTQVTVSS", "polyreactivity (PSR sort gate)": "high polyreactivity"},
      {"sequence": "QVQLVESGGGLVQAGGSLRLSCAASGFIFYNYAMGWSRQAPGKERELVAAITGGGSTNYADSVKGRFTISRDNAKTTVYLQMNSLKPEDTAVYYCAAEEGPPWSRYDYWGQGTQVTVSS", "polyreactivity (PSR sort gate)": "low polyreactivity"},
      {"sequence": "QVQLVESGGGLVQAGGSLRLSCAASGFIFYNYAMGWYRQAPGKERELVAAISASGGRTYYADSVKGRFTISRDNAKNTVYLQMHRLKPEDTAVYYCIARVKYKGYDYWGQGTQVTVSS", "polyreactivity (PSR sort gate)": "high polyreactivity"},
      {"sequence": "QVQLVESGGGLVQAGGSLRLSCAASGFIFYPNAMGWYRQAPGKERELVAAISSSTGSTYYADSVKGRFTISRDNAKNTVYLQMNSLNRVDTAGYYCAADLEYYPIGGDLQEREYWGQGTQVTVSS", "polyreactivity (PSR sort gate)": "low polyreactivity"},
      {"sequence": "QVQLVESGGGLVQAGGSLRLSCAASGFIFYRDAMGWYRPAPGKERELVAAISSRGVSTYYADSVKGRFTISRDNAKNTVYLLMNSLKPEDTAVYSCARISRYYALYDYWGQGTQVTVSS", "polyreactivity (PSR sort gate)": "high polyreactivity"}
    ]}
  ]
}
